Results on one molecule are retold here after PMC2646909.

This data set has as its target SOD1 G93A (untagged) (human, UniProt P00441 2-154, G94A). Briefly: competition.

Sequence of SOD1 G93A (untagged) (P00441 2-154 G94A): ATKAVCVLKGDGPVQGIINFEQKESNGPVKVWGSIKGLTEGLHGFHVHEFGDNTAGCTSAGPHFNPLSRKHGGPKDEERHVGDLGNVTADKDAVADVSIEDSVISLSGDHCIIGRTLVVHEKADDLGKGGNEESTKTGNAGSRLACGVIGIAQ

For the molecule CGGAGCCCAGCCCUCCCCAUGGAGCCAGCUCCCUCU (ssRNA) [control RNA (no AU-rich sequence)], the binding result is on record as “no binding”.
